{"source": "patent US20260116928A1", "about": "“COMPOSITIONS AND PARTICLES FOR PAYLOAD DELIVERY” (Thornhill Therapeutics, Inc., priority 2019, published 2026)", "molecules": {"B1": {"name": "SEQ ID NO: 3: Cholix carrier protein having the sequence of SEQ ID NO: 3 (protein)", "chain": "MVEEALNIFDECRSPCSLTPEPGKPIQSKLSIPSDVVLDEGVLYYSMTINDEQNDIKDEDKGESIITIGEFATVRATRHYVNQDAPFGVIHLDITTENGTKTYSYNRKEGEFAINWLVPIGEDSPASIKISVDELDQQRNIIEVPKLYSIDLDNQTLEQWKTQGNVSFSVTRPEHNIAISWPSVSYKAAQKEGSRHKRWAHWHTGLALCWLVPMDAIYNYITQQNCTLGDNWFGGSYETVAGTPKVITVKQGIEQKPVEQRIHFSKGSGGSGGGGSGGGGSPRRRRSSSRPVRRRRRPRVSRRRRRRGGRRRRHHHHHH"}}, "system": "pancreatin", "test": "Pancreatin assay (stability of SEQ ID NO: 3 and exenatide formulations)", "conditions": "after 120 minutes of incubation with pancreatin; FIG. 11", "data": [{"molecule": "B1", "values": [{"measurement": "degradation of SEQ ID NO: 3 by pancreatin", "value": "completely degraded"}]}]}
